Reference: paper PMC4521584

Substrate: Nc1ncnc2c1ncn2[C@@H]1O[C@H](COP(=O)(O)OP(=O)(O)OP(=O)(O)O)[C@@H](O)[C@H]1O
Assay: ATPase assay coupled to NADH oxidation
Format: biochemical, Escherichia coli
Conditions: 5 μM MutS, 3.125-500 μM ATP

Protein | Km [µM] | kcat [s⁻¹]
WT MutS (Escherichia coli K-12) (protein, full-length MutS from mutS gene in pET-3D, recombinant, purified; homodimer (can form tetramers)) MSAIENFDAHTPMMQQYLRLKAQHPEILLFYRMGDFYELFYDDAKRASQLLDISLTKRGASAGEPIPMAGIPYHAVENYLAKLVNQGESVAICEQIGDPATSKGPVERKVVRIVTPGTISDEALLQERQDNLLAAIWQDSKGFGYATLDISSGRFRLSEPADRETMAAELQRTNPAELLYAEDFAEMSLIEGRRGLRRRPLWEFEIDTARQQLNLQFGTRDLVGFGVENAPRGLCAAGCLLQYAKDTQRTTLPHIRSITMEREQDSIIMDAATRRNLEITQNLAGGAENTLASVLDCTVTPMGSRMLKRWLHMPVRDTRVLLERQQTIGALQDFTAGLQPVLRQVGDLERILARLALRTARPRDLARMRHAFQQLPELRAQLETVDSAPVQALREKMGEFAELRDLLERAIIDTPPVLVRDGGVIASGYNEELDEWRALADGATDYLERLEVRERERTGLDTLKVGFNAVHGYYIQISRGQSHLAPINYMRRQTLKNAERYIIPELKEYEDKVLTSKGKALALEKQLYEELFDLLLPHLEALQQSASALAELDVLVNLAERAYTLNYTCPTFIDKPGIRITEGRHPVVEQVLNEPFIANPLNLSPQRRMLIITGPNMGGKSTYMRQTALIALMAYIGSYVPAQKVEIGPIDRIFTRVGAADDLASGRSTFMVEMTETANILHNATEYSLVLMDEIGRGTSTYDGLSLAWACAENLANKIKALTLFATHYFELTQLPEKMEGVANVHLDALEHGDTIAFMHSVQDGAASKSYGLAVAALAGVPKEVIKRARQKLRELESISPNAAATQVDGTQMSLLSVPEETSPAVEALENLDPDSLTPRQALEWIYRLKSLV | 8.1 ± 0.7 | 0.138 ± 0.0033
WT MutS (Escherichia coli K-12; I597A/M759D/P595A) (protein, full-length MutS from mutS gene in pET-3D, recombinant, purified; homodimer (can form tetramers)) MSAIENFDAHTPMMQQYLRLKAQHPEILLFYRMGDFYELFYDDAKRASQLLDISLTKRGASAGEPIPMAGIPYHAVENYLAKLVNQGESVAICEQIGDPATSKGPVERKVVRIVTPGTISDEALLQERQDNLLAAIWQDSKGFGYATLDISSGRFRLSEPADRETMAAELQRTNPAELLYAEDFAEMSLIEGRRGLRRRPLWEFEIDTARQQLNLQFGTRDLVGFGVENAPRGLCAAGCLLQYAKDTQRTTLPHIRSITMEREQDSIIMDAATRRNLEITQNLAGGAENTLASVLDCTVTPMGSRMLKRWLHMPVRDTRVLLERQQTIGALQDFTAGLQPVLRQVGDLERILARLALRTARPRDLARMRHAFQQLPELRAQLETVDSAPVQALREKMGEFAELRDLLERAIIDTPPVLVRDGGVIASGYNEELDEWRALADGATDYLERLEVRERERTGLDTLKVGFNAVHGYYIQISRGQSHLAPINYMRRQTLKNAERYIIPELKEYEDKVLTSKGKALALEKQLYEELFDLLLPHLEALQQSASALAELDVLVNLAERAYTLNYTCPTFIDKPGIRITEGRHPVVEQVLNEAFAANPLNLSPQRRMLIITGPNMGGKSTYMRQTALIALMAYIGSYVPAQKVEIGPIDRIFTRVGAADDLASGRSTFMVEMTETANILHNATEYSLVLMDEIGRGTSTYDGLSLAWACAENLANKIKALTLFATHYFELTQLPEKMEGVANVHLDALEHGDTIAFDHSVQDGAASKSYGLAVAALAGVPKEVIKRARQKLRELESISPNAAATQVDGTQMSLLSVPEETSPAVEALENLDPDSLTPRQALEWIYRLKSLV | 9.5 ± 1 | 0.0633 ± 0.0017
